Experimental data reported in patent US20120107324A1.

Experiments:
[1] = biological target: β1 chain (integrin β1) (human) (UniProt P05556); assay: FACS on HT29 cells; Gt anti Mouse alone 2.52
[2] = biological target: Macaque β1 chain (Macaque); assay: FACS on macaque T-cells; Goat anti Mouse IgGFc Cy5 alone 2
[3] = biological target: human α5β1 integrin (human) (UniProt P08648); assay: FACS on human α5β1-transfected against untransfected 300.19 cells, 2.0 ug/mL
[4] = biological target: β1 chain (integrin β1) (human) (UniProt P05556); assay: FACS on HT29 cells, isotype control; human secondary 2.8
[5] = biological target: human α5β1 integrin (human) (UniProt P08648); assay: FACS on human α5β1-transfected 300.19 cells, 2.0 ug/mL
Macaque α5β1 (Macaque) [6] = assay: FACS on macaque T-cells, isotype control; Goat anti Human IgG Fc Cy5 alone 3
[7] = biological target: Macaque αv chain (Macaque); assay: FACS on macaque T-cells; Goat anti Mouse IgGFc Cy5 alone 2
αv integrin chain = αv integrin chain (UniProt P06756); assay: FACS on HT29 cells, positive control; Gt anti Mouse alone 2.52
αvβ6 integrin = αvβ6 integrin (UniProt P06756); assay: as above
[8] = biological target: β1 chain (integrin β1) (human) (UniProt P05556); assay: FACS on HT29 cells, isotype control; Gt anti Mouse alone 2.52
Macaque α5β1 (Macaque) [9] = assay: FACS on macaque T-cells, isotype control; Goat anti Mouse IgGFc Cy5 alone 2
[10] = biological target: human α5β1 integrin (human) (UniProt P08648); assay: FACS on human α5β1-transfected against untransfected 300.19 cells, 0.2 ug/mL
[11] = biological target: human α5β1 integrin (human) (UniProt P08648); assay: FACS on human α5β1-transfected 300.19 cells, 0.02 ug/mL
[12] = biological target: β1 chain (integrin β1) (human) (UniProt P05556); assay: FACS on HT29 cells (α5 null, β1 present); Gt anti Mouse alone 2.52
[13] = biological target: human α5β1 integrin (human) (UniProt P08648); assay: FACS on human α5β1-transfected against untransfected 300.19 cells, 0.02 ug/mL
[14] = biological target: human α5β1 integrin (human) (UniProt P08648); assay: FACS on human α5β1-transfected 300.19 cells, 0.2 ug/mL

human α5β1 integrin (human), sequence (P08648 42-1049, chain 1 of 2): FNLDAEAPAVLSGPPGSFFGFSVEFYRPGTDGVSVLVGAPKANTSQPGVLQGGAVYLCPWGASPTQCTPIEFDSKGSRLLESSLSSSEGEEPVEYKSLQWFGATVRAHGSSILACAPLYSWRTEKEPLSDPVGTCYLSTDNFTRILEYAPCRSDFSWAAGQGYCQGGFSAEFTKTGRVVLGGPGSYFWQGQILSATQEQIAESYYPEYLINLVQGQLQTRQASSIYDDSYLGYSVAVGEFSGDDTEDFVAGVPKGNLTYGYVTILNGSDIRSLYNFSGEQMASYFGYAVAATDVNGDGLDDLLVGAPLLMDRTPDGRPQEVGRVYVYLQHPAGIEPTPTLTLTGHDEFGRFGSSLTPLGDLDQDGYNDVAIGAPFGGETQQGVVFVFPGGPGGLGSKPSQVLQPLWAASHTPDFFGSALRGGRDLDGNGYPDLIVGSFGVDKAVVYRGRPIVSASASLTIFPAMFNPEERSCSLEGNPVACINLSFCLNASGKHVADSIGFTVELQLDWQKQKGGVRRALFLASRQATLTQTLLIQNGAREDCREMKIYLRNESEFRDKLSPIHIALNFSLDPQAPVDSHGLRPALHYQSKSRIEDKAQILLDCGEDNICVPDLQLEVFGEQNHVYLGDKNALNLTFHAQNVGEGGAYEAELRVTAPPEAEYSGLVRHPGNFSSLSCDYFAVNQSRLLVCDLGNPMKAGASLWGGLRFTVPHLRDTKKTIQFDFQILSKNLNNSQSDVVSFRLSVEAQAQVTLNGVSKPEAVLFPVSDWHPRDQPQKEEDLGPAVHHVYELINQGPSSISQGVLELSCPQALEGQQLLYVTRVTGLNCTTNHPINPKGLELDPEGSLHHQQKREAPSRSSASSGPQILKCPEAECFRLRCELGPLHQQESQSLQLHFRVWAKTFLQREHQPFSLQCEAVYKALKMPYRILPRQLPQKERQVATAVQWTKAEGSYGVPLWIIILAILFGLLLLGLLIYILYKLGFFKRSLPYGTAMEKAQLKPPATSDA
human α5β1 integrin (human), sequence (P05556 21-798, chain 2 of 2, further chain): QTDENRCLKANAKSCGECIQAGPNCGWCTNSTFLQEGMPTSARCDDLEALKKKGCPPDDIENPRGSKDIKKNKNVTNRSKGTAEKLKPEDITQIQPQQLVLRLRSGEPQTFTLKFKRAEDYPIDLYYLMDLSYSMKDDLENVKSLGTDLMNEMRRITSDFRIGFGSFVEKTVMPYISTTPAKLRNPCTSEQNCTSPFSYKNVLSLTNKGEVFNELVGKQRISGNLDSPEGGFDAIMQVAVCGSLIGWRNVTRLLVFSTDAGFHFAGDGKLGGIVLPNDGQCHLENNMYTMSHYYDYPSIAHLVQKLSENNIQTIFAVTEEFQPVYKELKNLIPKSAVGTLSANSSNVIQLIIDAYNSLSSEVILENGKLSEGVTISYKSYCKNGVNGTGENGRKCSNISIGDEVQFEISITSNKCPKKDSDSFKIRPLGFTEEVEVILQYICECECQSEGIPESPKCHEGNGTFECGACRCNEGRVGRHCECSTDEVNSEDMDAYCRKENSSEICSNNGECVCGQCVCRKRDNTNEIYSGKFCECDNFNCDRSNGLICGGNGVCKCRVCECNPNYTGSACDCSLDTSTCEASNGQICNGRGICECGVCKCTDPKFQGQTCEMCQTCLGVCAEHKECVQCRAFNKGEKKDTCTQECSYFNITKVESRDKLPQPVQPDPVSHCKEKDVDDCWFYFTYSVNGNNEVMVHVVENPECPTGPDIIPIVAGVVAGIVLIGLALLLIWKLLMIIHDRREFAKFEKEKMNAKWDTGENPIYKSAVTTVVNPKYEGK
β1 chain (integrin β1) (human), sequence (P05556 21-798): as the sequence (P05556 21-798, chain 2 of 2, further chain) above
αvβ6 integrin, sequence (P06756 31-1048, chain 1 of 2): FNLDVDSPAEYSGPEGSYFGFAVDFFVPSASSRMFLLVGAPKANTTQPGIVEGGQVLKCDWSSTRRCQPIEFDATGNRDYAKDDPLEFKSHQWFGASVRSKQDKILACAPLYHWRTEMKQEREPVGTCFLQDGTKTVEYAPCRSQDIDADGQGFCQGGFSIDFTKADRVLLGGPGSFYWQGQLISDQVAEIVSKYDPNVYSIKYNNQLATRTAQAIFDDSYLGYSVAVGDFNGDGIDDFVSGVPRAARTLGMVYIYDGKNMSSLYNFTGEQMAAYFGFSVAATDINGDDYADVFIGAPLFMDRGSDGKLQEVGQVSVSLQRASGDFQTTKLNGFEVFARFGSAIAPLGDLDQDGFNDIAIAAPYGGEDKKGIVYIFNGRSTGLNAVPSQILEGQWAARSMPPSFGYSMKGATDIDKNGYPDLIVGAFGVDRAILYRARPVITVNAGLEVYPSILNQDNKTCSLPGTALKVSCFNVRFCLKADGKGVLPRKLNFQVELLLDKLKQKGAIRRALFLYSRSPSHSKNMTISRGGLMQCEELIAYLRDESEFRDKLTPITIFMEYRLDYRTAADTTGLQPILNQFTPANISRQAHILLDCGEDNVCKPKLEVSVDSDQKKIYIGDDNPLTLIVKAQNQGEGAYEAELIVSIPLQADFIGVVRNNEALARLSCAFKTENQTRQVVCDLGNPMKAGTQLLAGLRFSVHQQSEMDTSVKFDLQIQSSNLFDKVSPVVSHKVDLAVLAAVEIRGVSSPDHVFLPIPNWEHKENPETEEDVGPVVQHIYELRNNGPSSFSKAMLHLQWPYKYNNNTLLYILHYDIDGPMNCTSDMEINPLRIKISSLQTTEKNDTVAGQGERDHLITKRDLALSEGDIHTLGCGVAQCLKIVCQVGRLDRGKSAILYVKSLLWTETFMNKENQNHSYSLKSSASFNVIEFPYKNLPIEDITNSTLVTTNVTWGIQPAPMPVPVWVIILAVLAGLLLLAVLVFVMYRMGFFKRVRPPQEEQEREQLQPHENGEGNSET
αvβ6 integrin, sequence (P18564 22-788, chain 2 of 2, further chain): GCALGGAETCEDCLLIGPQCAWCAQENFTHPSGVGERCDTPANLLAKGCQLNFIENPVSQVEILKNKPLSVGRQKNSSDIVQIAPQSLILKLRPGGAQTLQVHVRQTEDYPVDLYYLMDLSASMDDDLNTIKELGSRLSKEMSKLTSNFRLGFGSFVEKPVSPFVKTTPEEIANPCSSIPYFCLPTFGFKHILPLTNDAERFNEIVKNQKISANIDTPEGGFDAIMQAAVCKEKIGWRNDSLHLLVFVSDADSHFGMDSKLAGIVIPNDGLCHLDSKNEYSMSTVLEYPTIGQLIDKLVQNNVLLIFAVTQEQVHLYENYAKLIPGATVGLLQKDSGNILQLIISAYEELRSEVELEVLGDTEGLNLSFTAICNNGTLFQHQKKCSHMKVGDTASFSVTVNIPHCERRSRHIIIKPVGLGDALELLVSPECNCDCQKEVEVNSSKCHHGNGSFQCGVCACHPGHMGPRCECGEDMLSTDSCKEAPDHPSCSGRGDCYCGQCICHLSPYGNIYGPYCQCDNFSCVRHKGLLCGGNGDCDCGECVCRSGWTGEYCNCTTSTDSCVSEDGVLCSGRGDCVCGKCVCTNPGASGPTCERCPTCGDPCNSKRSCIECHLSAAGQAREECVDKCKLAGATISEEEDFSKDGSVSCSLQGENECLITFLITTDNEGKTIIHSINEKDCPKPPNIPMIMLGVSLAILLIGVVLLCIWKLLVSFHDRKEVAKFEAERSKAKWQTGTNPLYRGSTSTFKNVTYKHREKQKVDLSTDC
αv integrin chain, sequence (P06756 31-1048 limits assumed): as the sequence (P06756 31-1048, chain 1 of 2) above

Substance 4B4 (antibody) has a Binding Geomean [1] of 362 and a Geo Mean on Macaque T-cells IgG detection [2] of 141.

Human IgG2 (antibody) gave a Ratio (α5β1 expressing B300.19 cells against B300.19 cells) [3] of 0.8, a Binding Geomean [4] of 2.84 and a X Geo Mean [5] of 12.

With Human IgG2/4 (antibody) the Geo Mean on Macaque T-cells IgG detection (Macaque α5β1 (Macaque) [6]) was 3.

In the case of Human IgG4 (antibody), the Binding Geomean [4] is reported as 3.2.

Work on L230 (antibody) yielded a Geo Mean on Macaque T-cells IgG detection [7] of 3 and a Binding Geomean (αv integrin chain) of 294.

MAB2077Z (antibody) was tested, and the Binding Geomean (αvβ6 integrin) was 39.2.

Mouse IgG1 (antibody) gave a Ratio (α5β1 expressing B300.19 cells against B300.19 cells) [3] of 0.9, a X Geo Mean [5] of 14.9 and a Binding Geomean [8] of 2.55. For the same substance, the Geo Mean on Macaque T-cells IgG detection (Macaque α5β1 (Macaque) [9]) was 2.

In the case of Mouse IgG2a (antibody), the Binding Geomean [8] is reported as 10.2.

In the case of mAb 1969 (antibody), the Ratio (α5β1 expressing B300.19 cells against B300.19 cells) [3] is reported as 9.5, the X Geo Mean [5] is reported as 194 and the Ratio (α5β1 expressing B300.19 cells against B300.19 cells) [10] is reported as 6.9. It also gave a X Geo Mean [11] of 45.1, a Binding Geomean [12] of 2.69 and a Ratio (α5β1 expressing B300.19 cells against B300.19 cells) [13] of 2.5. It also gave a X Geo Mean [14] of 152.
